These results are taken from paper PMC2754075 (Nature cell biology, 2009).

The target of this test is MBP-VPRBP (UniProt Q9Y4B6 1-1507). In words: pull-down.
MBP-VPRBP, sequence (Q9Y4B6 whole entry): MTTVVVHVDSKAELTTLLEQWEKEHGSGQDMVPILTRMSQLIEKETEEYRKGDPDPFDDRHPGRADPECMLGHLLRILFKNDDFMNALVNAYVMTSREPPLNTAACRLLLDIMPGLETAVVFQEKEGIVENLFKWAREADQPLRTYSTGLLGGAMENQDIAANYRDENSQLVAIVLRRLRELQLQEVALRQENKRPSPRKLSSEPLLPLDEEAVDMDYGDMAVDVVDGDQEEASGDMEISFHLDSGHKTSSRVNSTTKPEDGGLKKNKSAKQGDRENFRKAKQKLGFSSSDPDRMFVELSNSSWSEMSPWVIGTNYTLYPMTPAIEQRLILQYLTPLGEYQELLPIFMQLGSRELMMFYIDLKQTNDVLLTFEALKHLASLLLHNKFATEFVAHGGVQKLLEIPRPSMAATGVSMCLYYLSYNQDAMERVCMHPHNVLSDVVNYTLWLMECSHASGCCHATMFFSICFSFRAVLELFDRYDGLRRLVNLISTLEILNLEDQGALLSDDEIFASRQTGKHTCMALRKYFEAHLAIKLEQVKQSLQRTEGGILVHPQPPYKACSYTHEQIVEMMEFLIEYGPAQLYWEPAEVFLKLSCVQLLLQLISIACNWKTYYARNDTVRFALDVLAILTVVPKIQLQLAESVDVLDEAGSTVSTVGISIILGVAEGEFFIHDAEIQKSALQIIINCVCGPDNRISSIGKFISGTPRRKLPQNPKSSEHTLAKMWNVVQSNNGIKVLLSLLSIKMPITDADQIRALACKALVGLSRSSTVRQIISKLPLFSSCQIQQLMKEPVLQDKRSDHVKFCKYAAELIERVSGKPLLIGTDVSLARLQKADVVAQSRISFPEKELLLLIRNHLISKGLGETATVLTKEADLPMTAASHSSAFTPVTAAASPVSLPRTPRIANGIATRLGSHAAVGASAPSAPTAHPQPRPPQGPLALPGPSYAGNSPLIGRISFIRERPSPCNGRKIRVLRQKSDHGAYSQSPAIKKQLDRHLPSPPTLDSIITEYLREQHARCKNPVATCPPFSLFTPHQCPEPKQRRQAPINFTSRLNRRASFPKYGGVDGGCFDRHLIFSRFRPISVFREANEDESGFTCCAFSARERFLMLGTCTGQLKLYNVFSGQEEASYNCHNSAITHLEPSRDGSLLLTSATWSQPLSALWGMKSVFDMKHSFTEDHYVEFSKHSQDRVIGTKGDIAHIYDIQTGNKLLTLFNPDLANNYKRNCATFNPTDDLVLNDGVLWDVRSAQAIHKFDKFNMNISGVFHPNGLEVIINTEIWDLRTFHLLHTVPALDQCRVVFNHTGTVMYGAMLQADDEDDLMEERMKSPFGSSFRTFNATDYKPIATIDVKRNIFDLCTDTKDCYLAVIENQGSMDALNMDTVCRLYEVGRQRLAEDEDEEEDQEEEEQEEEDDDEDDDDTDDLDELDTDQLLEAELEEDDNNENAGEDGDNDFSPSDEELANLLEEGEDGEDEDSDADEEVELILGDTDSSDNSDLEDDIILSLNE

B1: GST-Katanin (natural protein)
chain: MSLLMISENVKLAREYALLGNYDSAMVYYQGVLDQMNKYLYSVKDTYLQQKWQQVWQEINVEAKHVKDIMKTLESFKLDSTPLKAAQHDLPASEGEVWSMPVPVERRPSPGPRKRQSSQYSDPKSHGNRPSTTVRVHRSSAQNVHNDRGKAVRCREKKEQNKGREEKNKSPAAVTEPETNKFDSTGYDKDLVEALERDIISQNPNVRWDDIADLVEAKKLLKEAVVLPMWMPEFFKGIRRPWKGVLMVGPPGTGKTLLAKAVATECKTTFFNVSSSTLTSKYRGESEKLVRLLFEMARFYSPATIFIDEIDSICSRRGTSEEHEASRRVKAELLVQMDGVGGTSENDDPSKMVMVLAATNFPWDIDEALRRRLEKRIYIPLPSAKGREELLRISLRELELADDVDLASIAENMEGYSGADITNVCRDASLMAMRRRIEGLTPEEIRNLSKEEMHMPTTMEDFEMALKKVSKSVSAADIERYEKWIFEFGSC
Turning to B1, the binding result is reported as “binds”.
